Laboratory results: PMC2835748

Test system: GST-PTB (polypyrimidine tract binding protein)
Test: EMSA
Settings: EMSA: 85 nM RNA, 50 mM HEPES pH 7.6, 25 mM KCl, 2.5 mM MgCl2, 1 mM DTT, 4% glycerol, 0.67 ug/ul yeast tRNA, 10 min at 30 C; 4% native gel with 5% glycerol

FCV gRNA 1-202 WT
binding signal (relative to 1-245): 1

FCV gRNA 1-245
binding signal (relative affinity (reference)): 1
